The source of these data is publication PMC3249508 (Journal of Molecular Biology, 2011).

Sequences and labels used below:
B1: Alexa-488-labeled HIV-1 Rev protein (natural protein)
chain: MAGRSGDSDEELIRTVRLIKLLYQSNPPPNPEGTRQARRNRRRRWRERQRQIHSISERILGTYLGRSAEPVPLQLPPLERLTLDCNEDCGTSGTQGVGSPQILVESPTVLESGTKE
modifications: Alexa-488 label (site not stated)
B2: recombinant full-length human DDX1 (enzyme)
chain: MAAFSEMGVMPEIAQAVEEMDWLLPTDIQAESIPLILGGGDVLMAAETGSGKTGAFSIPVIQIVYETLKDQQEGKKGKTTIKTGASVLNKWQMNPYDRGSAFAIGSDGLCCQSREVKEWHGCRATKGLMKGKHYYEVSCHDQGLCRVGWSTMQASLDLGTDKFGFGFGGTGKKSHNKQFDNYGEEFTMHDTIGCYLDIDKGHVKFSKNGKDLGLAFEIPPHMKNQALFPACVLKNAELKFNFGEEEFKFPPKDGFVALSKAPDGYIVKSQHSGNAQVTQTKFLPNAPKALIVEPSRELAEQTLNNIKQFKKYIDNPKLRELLIIGGVAARDQLSVLENGVDIVVGTPGRLDDLVSTGKLNLSQVRFLVLDEADGLLSQGYSDFINRMHNQIPQVTSDGKRLQVIVCSATLHSFDVKKLSEKIMHFPTWVDLKGEDSVPDTVHHVVVPVNPKTDRLWERLGKSHIRTDDVHAKDNTRPGANSPEMWSEAIKILKGEYAVRAIKEHKMDQAIIFCRTKIDCDNLEQYFIQQGGGPDKKGHQFSCVCLHGDRKPHERKQNLERFKKGDVRFLICTDVAARGIDIHGVPYVINVTLPDEKQNYVHRIGRVGRAERMGLAISLVATEKEKVWYHVCSSRGKGCYNTRLKEDGGCTIWYNEMQLLSEIEEHLNCTISQVEPDIKVPVDEFDGKVTYGQKRAAGGGSYKGHVDILAPTVQELAALEKEAQTSFLHLGYLPNQLFRTF

For series [1], the target named is B2. The series is described as follows: fluorescence polarisation.
For series [2], the target named is B2. The series is described as follows: fluorescence polarisation. This is another data set of the same source.
In series [3] the target is B2. Nature of the series: fluorescence polarisation. This is another data set of the same source.
The target of series [4] is T1, DDX1 (1–428) (human, UniProt Q92499 1-428).
T1 sequence: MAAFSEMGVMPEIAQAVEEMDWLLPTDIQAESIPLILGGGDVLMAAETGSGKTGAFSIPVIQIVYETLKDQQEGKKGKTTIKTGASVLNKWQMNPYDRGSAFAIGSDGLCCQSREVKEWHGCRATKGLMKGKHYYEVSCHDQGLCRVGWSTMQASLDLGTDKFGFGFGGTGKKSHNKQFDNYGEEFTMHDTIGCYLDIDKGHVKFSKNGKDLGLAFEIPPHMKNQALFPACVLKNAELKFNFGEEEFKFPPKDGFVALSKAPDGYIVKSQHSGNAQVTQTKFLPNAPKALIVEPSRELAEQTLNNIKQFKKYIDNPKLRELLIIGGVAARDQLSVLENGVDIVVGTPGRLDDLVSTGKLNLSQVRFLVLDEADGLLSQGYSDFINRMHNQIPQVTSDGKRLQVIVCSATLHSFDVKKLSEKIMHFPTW
Nature of the series: fluorescence polarisation. (In fluorescence polarisation assays a small probe gives low polarisation when free and higher when bound to something large.)

In series [5] the target is bovine serum albumin (bovine, UniProt P02769 25-607). Nature of the series: fluorescence polarisation.
Series [6] deals with the molecule itself. Nature of the series: SEC.

Where two headings read alike, the source gives them in different places.

Chain of bovine serum albumin (P02769 25-607): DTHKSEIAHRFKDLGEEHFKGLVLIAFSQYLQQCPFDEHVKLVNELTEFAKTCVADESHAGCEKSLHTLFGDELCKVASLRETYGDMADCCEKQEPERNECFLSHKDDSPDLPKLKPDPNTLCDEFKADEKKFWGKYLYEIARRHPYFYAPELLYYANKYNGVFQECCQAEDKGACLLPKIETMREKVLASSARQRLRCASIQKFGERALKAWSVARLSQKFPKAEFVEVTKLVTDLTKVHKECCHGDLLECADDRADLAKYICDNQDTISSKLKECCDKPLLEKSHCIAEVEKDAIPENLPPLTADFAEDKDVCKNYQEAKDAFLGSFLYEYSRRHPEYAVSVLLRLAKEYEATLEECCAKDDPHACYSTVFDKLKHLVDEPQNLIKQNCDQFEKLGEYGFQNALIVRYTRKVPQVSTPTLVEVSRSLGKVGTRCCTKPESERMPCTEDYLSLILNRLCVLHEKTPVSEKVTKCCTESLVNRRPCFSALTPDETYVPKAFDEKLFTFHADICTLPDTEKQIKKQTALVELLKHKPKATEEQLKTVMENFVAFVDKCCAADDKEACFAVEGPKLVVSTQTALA

As for B1, the Kd (as a rule, the concentration at which binding is half-saturated) in series [1] was 14.7 nM; in series [2] it was 53 nM; in series [3], 36 nM; in series [4], 43 nM; in series [5], more than 500 nM.
With B2, in series [6], the binding result is reported as “binds”.
